Test results: PMC8497620, “Structure and inhibition of Cryptococcus neoformans sterylglucosidase to develop antifungal agents” (Nature Communications, 2021)

The molecules below were run against T1, C. neoformans Sgl1 (Cryptococcus neoformans var. grubii, UniProt J9W473) (assay: Sgl1 inhibition with res-glp substrate (HTS, single-compound dose-response)). Conditions: res-glp as substrate (100 µM), primary screen; read-out: IC50 against Sgl1.
T1 sequence (J9W473 entry or part of it): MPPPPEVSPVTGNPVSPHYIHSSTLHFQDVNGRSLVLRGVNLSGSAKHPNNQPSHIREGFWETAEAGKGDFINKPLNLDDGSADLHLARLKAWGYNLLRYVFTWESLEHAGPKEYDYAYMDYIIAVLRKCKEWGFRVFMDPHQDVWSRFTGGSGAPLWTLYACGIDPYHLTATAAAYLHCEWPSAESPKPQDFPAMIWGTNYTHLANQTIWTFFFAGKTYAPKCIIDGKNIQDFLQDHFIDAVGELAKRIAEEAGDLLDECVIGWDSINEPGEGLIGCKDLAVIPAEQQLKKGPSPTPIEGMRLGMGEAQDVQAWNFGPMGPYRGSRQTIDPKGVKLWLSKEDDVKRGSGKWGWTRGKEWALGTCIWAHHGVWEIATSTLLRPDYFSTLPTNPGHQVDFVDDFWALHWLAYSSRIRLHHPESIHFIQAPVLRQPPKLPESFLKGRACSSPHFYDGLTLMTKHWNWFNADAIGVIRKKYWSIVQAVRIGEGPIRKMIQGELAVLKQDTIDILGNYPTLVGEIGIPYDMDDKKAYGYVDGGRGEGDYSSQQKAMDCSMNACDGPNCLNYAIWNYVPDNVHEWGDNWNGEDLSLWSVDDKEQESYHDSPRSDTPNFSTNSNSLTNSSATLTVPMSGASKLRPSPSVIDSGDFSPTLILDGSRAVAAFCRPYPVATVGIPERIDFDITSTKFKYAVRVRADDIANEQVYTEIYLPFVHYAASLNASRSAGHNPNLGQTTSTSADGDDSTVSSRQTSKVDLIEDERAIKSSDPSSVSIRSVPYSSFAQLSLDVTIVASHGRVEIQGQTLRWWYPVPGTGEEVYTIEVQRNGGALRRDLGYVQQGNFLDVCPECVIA
Assay type: biochemical
Protocol: Resorufin-3β-D-glucopyranoside (res-glp, Sigma-Aldrich) enzyme kinetic assays were performed according to methods described by Urban et al.[16] with modifications. Reaction buffer contained 50 mM citric acid, 176 mM K2HPO4, pH 6, 0.01% Tween-20, and 10 mM sodium taurocholate. The reactions were carried out in black 96-well plates using 20 ng of enzyme with 100 μM res-glp substrate. In all, 10 μL/well of res-glp substrate was added to each well and the reaction was initiated by adding 20 μL enzyme (20 ng). After incubation at 37 °C for 30–40 min, the fluorescence was read at an excitation of 570 (±10) nm and an emission of 610 (±10) nm on a VersaMax™ Microplate Reader from Molecular Devices. A standard curve was prepared with serial dilutions of the free fluorophore, resorufin, in the same volume of assay buffer.
A ChemBridge DIVERSet-CL library (San Diego, CA) containing 50,000 compounds was screened to identify small molecules that inhibit C. neoformans Sgl1. The library was prepared in a 96-well plate format containing a cocktail of 10 compounds per well at 1 mM each in 100% DMSO. The cocktail plates were first diluted to 100 μM each (1:10 dilution in Dulbecco’s phosphate-buffered saline, DPBS) resulting in 10% DMSO. In order to screen the compound cocktails at […] in 1% DMSO in a final reaction volume of 30 μL an aliquot of 3 μL was added to 17 μL of buffer containing 20 ng of enzyme and the reaction was started adding 10 μL of 100 μM res-glp. A negative control without enzyme and positive controls with and without DMSO were prepared. The plates were incubated at 37 °C for 40 min.
The Z′-factor was used for the assessment of the efficiency of the HTS assay for each individual plate. Values greater than 0.5 has been considered as an indicator of an excellent screening assay quality.
For `O=C(c1ccc(-c2ccccc2)c(F)c1)C1CCCN(C2CCSCC2)C1` (stereo not drawn) [Hit 2], the IC50 was 4 µM.
`CC(C)Oc1cccc(C(=O)C2CCCN(C3CCSCC3)C2)c1` (stereo not drawn) [Hit 3] showed an IC50 of 4 µM.
With `Cc1cc(NCc2ccc3[nH]c(C)c(C)c3c2)nc(N)n1` [Hit 4] the IC50 was 4 µM.
Work on `CCC(Sc1nc2ccccc2o1)C(=O)N1CCc2[nH]cnc2C1` (stereo not drawn) [Hit 8] yielded an IC50 of 4 µM.
With `CN(C)CCN(Cc1ccsc1)Cc1ccc2nonc2c1` [Hit 11] the IC50 was 4 µM.
Molecule `COc1cc(CNCc2cc(C)cc3c(C)c(C)[nH]c23)cc2c1OCO2` [Hit 12] has an IC50 of 2 µM.

Each molecule was assayed against T1, C. neoformans Sgl1 (assay: H/D exchange mass spectrometry mapping of disordered regions). Conditions: H/D exchange MS of C. neoformans Sgl1; per peptide (amino acids Start-End, Sequence); Fig S2a.
Protocol: HDX-MS reactions were performed in a similar manner as is outlined in previous publications. HDX reactions were conducted in a final reaction volume of 50 µL with a final Sgl1 concentration of 0.6 µM (30 pmol). Exchange was carried out in triplicate for a single time point (3 s at 4 °C). Hydrogen deuterium exchange was initiated by the addition of 48 µL of D2O buffer (100 mM NaCl (20 mM pH 6.0 Bis-Tris), 90.5% D2O (V/V) to 1 µL of protein and 1 µL of H2O. Exchange was terminated by the addition of ice-cold acidic quench buffer, resulting in a final concentration of 0.6 M guanidine-HCl and 0.9% FA post quench. Samples were immediately frozen in liquid nitrogen and stored at −80 °C. Fully deuterated samples were generated by first denaturing the protein in 2 M guanidine for 5 min at 20 °C. Following denaturing, 48 µL of D2O buffer was added to the denatured protein and allowed to incubate for 5 min at 20 °C before quenching. Samples were flash frozen and stored at −80 °C until injection onto the ultra-performance liquid chromatography (UPLC) system for proteolytic cleavage, peptide separation, and injection onto a QTOF for mass analysis.
Protein sample was rapidly thawed and injected onto a UPLC system kept in a cold box at 2 °C. The protein was run over two immobilized pepsin columns (Applied Biosystems; Porosyme 2-3131-00) and the peptides were collected onto a VanGuard Precolumn trap (Waters). The trap was eluted in line with an ACQUITY 1.7 μm particle, 100 × 1 mm^2 C18 UPLC column (Waters), using a gradient of 5–36% B (Buffer A 0.1% formic acid, Buffer B 100% acetonitrile) over 16 min. MS experiments were performed on an Impact QTOF (Bruker) and peptide identification was done by running tandem MS (MS/MS) experiments run in data-dependent acquisition mode. The resulting MS/MS dataset was analyzed using PEAKS7 (PEAKS) and a false discovery rate was set at 1% using a database of purified proteins and known contaminants. HDExaminer Software (Sierra Analytics) was used to automatically calculate the level of deuterium incorporation into each peptide. All peptides were manually inspected for correct charge state and presence of overlapping peptides. Deuteration levels were calculated using the centroid of the experimental isotope clusters, with correction for back exchange generated using the fully deuterated sample. The mass spectrometry proteomics data have been deposited to the ProteomeXchange Consortium via the PRIDE partner repository[31] with the dataset identifier PXD024981.
For “STNSNSLTNSSATLTVPMSGASKLRPSPSVIDSGDFSPTL”, the “% Deuterium incorporation, Average” value was 72.8%.
For STVSSRQTSKVDL, the “% Deuterium incorporation, Average” value was 98.6%.
SYHDSPRSDTPNF was tested, and the “% Deuterium incorporation, Average” value was 96.9%.
TGGSGAPLWTL was tested, and the “% Deuterium incorporation, Average” value was 5.6%.
In the case of TIDPKGVKL, the “% Deuterium incorporation, Average” value is reported as 7.9%.
TIEVQRNGGAL was tested, and the “% Deuterium incorporation, Average” value was 26.9%.
In the case of TLMTKHWNWFNA, the “% Deuterium incorporation, Average” value is reported as 34.8%.
For TVGIPERIDF, the “% Deuterium incorporation, Average” value was 7.3%.
For TVPMSGASKLRPSPSV, the “% Deuterium incorporation, Average” value was 90.4%.
With TVPMSGASKLRPSPSVIDSGDFSPTL the “% Deuterium incorporation, Average” value was 57.8%.
TWESLEHAGPKEYD was tested, and the “% Deuterium incorporation, Average” value was 5.0%.
For VGEIGIPYDMD, the “% Deuterium incorporation, Average” value was 24.9%.
In the case of VGEIGIPYDMDDKKAYGYVDGGRGEGDY, the “% Deuterium incorporation, Average” value is reported as 21.5%.
In the case of VGEIGIPYDMDDKKAYGYVDGGRGEGDYSSQQKAMD, the “% Deuterium incorporation, Average” value is reported as 19.4%.
VGELAKRIAEEAGDL was tested, and the “% Deuterium incorporation, Average” value was 5.8%.
VGIPERIDF was tested, and the “% Deuterium incorporation, Average” value was 8.3%.
For VIGWDSINEPGEGL, the “% Deuterium incorporation, Average” value was 4.0%.
For VIGWDSINEPGEGLIG, the “% Deuterium incorporation, Average” value was 3.9%.
With VIGWDSINEPGEGLIGCKDL the “% Deuterium incorporation, Average” value was 5.1%.
With VIRKKYWSIVQ the “% Deuterium incorporation, Average” value was 49.5%.
VIRKKYWSIVQA was tested, and the “% Deuterium incorporation, Average” value was 46.8%.
With VLKQDTIDILGNYPTL the “% Deuterium incorporation, Average” value was 10.8%.
VNLSGSAKHPNNQPSHIREGF was tested, and the “% Deuterium incorporation, Average” value was 45.8%.
For VQAWNFGPMGPYRGSRQTIDPKGVKL, the “% Deuterium incorporation, Average” value was 24.9%.
With VQRNGGAL the “% Deuterium incorporation, Average” value was 39.7%.
For VQRNGGALRRDLG, the “% Deuterium incorporation, Average” value was 72.0%.
With VRIGEGPIRKMIQGEL the “% Deuterium incorporation, Average” value was 21.0%.
In the case of VSIRSVPYSSF, the “% Deuterium incorporation, Average” value is reported as 97.9%.
VTIVASHGRVEIQGQTL was tested, and the “% Deuterium incorporation, Average” value was 23.2%.
In the case of VTIVASHGRVEIQGQTLRWWYPVPGTGE, the “% Deuterium incorporation, Average” value is reported as 23.1%.
For VTIVASHGRVEIQGQTLRWWYPVPGTGEE, the “% Deuterium incorporation, Average” value was 22.0%.
In the case of VTIVASHGRVEIQGQTLRWWYPVPGTGEEV, the “% Deuterium incorporation, Average” value is reported as 18.9%.
In the case of VTIVASHGRVEIQGQTLRWWYPVPGTGEEVY, the “% Deuterium incorporation, Average” value is reported as 18.9%.
With VWEIATSTLLRPDYFS the “% Deuterium incorporation, Average” value was 21.9%.
In the case of WAHHGVWE, the “% Deuterium incorporation, Average” value is reported as 1.5%.
In the case of WAHHGVWEI, the “% Deuterium incorporation, Average” value is reported as 2.5%.
In the case of WALGTCI, the “% Deuterium incorporation, Average” value is reported as 3.3%.
WALGTCIWAHHGVWE was tested, and the “% Deuterium incorporation, Average” value was 1.7%.
With WALHWLAY the “% Deuterium incorporation, Average” value was 4.9%.
For WESLEHAGPKEYD, the “% Deuterium incorporation, Average” value was 6.6%.
With WESLEHAGPKEYDY the “% Deuterium incorporation, Average” value was 7.1%.
For WESLEHAGPKEYDYA, the “% Deuterium incorporation, Average” value was 8.8%.
With WETAEAGKGDF the “% Deuterium incorporation, Average” value was 47.7%.
WLSKEDDVKRGSGKWGWTRGKE was tested, and the “% Deuterium incorporation, Average” value was 27.6%.
In the case of WLSKEDDVKRGSGKWGWTRGKEWALGTCI, the “% Deuterium incorporation, Average” value is reported as 17.4%.
In the case of WLSKEDDVKRGSGKWGWTRGKEWALGTCIWAHHGVWE, the “% Deuterium incorporation, Average” value is reported as 11.7%.
For WNFGPMGPYRGSRQ, the “% Deuterium incorporation, Average” value was 53.6%.
In the case of WNFGPMGPYRGSRQTIDPKG, the “% Deuterium incorporation, Average” value is reported as 43.4%.
In the case of WNFGPMGPYRGSRQTIDPKGVKL, the “% Deuterium incorporation, Average” value is reported as 28.6%.
For WSRFTGGSGAPLWTL, the “% Deuterium incorporation, Average” value was 5.9%.
For WSVDDKEQES, the “% Deuterium incorporation, Average” value was 70.6%.
With WSVDDKEQESY the “% Deuterium incorporation, Average” value was 71.0%.
For WSVDDKEQESYHDSPRSDTPNF, the “% Deuterium incorporation, Average” value was 83.4%.
YACGIDPYHLTA was tested, and the “% Deuterium incorporation, Average” value was 15.5%.
In the case of YACGIDPYHLTATA, the “% Deuterium incorporation, Average” value is reported as 18.2%.
For YAIWNYVPDNVHE, the “% Deuterium incorporation, Average” value was 15.0%.
For YAIWNYVPDNVHEWGDN, the “% Deuterium incorporation, Average” value was 15.4%.
For YLHCEWPSAESPKPQDF, the “% Deuterium incorporation, Average” value was 52.9%.
YLHCEWPSAESPKPQDFPAM was tested, and the “% Deuterium incorporation, Average” value was 56.9%.
YTHLANQ was tested, and the “% Deuterium incorporation, Average” value was 4.9%.
With YTHLANQTIWTF the “% Deuterium incorporation, Average” value was 3.6%.
With YTHLANQTIWTFF the “% Deuterium incorporation, Average” value was 3.1%.
In the case of YVDGGRGEGD, the “% Deuterium incorporation, Average” value is reported as 72.5%.
For YVDGGRGEGDY, the “% Deuterium incorporation, Average” value was 69.5%.
With YVDGGRGEGDYSSQ the “% Deuterium incorporation, Average” value was 64.9%.
With YVDGGRGEGDYSSQQ the “% Deuterium incorporation, Average” value was 65.8%.
For YVDGGRGEGDYSSQQKAMD, the “% Deuterium incorporation, Average” value was 51.4%.
In the case of YVQQGNF, the “% Deuterium incorporation, Average” value is reported as 102.8%.
In the case of YVQQGNFL, the “% Deuterium incorporation, Average” value is reported as 101.5%.
